{"source": "patent US20170209564A1", "target": "s127H1-t2 (Influenza A virus H1N1 A/Brisbane/59/2007)", "conditions": "remark: other sources report otherwise"}
{"binder": "monoclonal antibody CR6261 (antibody, V domains shown) VH: EVQLVESGAEVKKPGSSVKVSCKASGGPFRSYAISWVRQAPGQGPEWMGGIIPIFGTTKYAPKFQGRVTITADDFAGTVYMELSSLRSEDTAMYYCAKHMGYQVRETMDVWGKGTTVTVSS VL: QSVLTQPPSVSAAPGQKVTISCSGSSSNIGNDYVSWYQQLPGTAPKLLIYDNNKRPSGIPDRFSGSKSGTSATLGITGLQTGDEANYYCATWDRRPTAYVVFGGGTKLTVLG", "values": [{"measurement": "Kd", "result": 3.5, "unit": "nM"}]}
